In publication PMC3716610:

Key:
Assay in all cases: EMSA
Settings in all cases: 25 mM Tris-HCl pH 7.5, 50 mM KCl, 0.5 mM MgCl2, 100 µg/ml BSA, 1 mM DTT, 10% glycerol; 0.1 µM DNA; 37°C, 30 min; 1% agarose gel, ethidium bromide
[1] = system: MBP-3B2ct (C-terminal DNMT3B2);GST-3B2ct (human;human)
[2] = system: MBP-3B2ct (C-terminal DNMT3B2);GST-3B3ct (human;human)
[3] = system: MBP-3B2ct (C-terminal DNMT3B2) (human)
[4] = system: MBP-3B3ct (C-terminal DNMT3B3) (human)
[5] = system: MBP-3B4ct (C-terminal DNMT3B4) (human)

## 420 bp DNMT3B PWWP fragment
[1]
  Kd: 400 nM
[2]
  Kd: 1500 nM
[3]
  Kd: 220 nM
[4]
  Kd: 160 nM
[5]
  Kd: 2420 nM
